Consider 2 molecules from patent publication US20250354169A1.

The assay deals with human FAM19A5-Fc protein (human) (UniProt Q7Z5A7). Put plainly: binding inhibition, flow cytometry: 0.1 ug FAM19A5-Fc pre-incubated with 200 uL scFv supernatant, added to U87MG cells, detected with anti-human IgG 488; control GFP AAV supernatant.
Sequence of UniProt Q7Z5A7 (Q7Z5A7 44-132): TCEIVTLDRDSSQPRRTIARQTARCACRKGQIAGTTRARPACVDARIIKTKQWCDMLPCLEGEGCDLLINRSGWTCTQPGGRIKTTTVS

B1: anti-FAM19A5 ("2-13") scFv, secreted by cells transduced with scAAV9-CMV-2-13-ScFv (scFv, part only)
scFv: ALTQPSSVSANPGETVKITCSGGSYSYGWFQQKSPGSALVTVIYWDDERPSDIPSRFSGALSGSTNTLTITGVQADDEAVYFCGTEDISGTAGVFGAGTTLTVLSGGGGSSGGGGSAVTLDESGGGLQTPGGALSLVCKASGFTFSSHGMFWVRQTPGKGLEYVAEITNDGSGTNYGSAVKGRATISRDNGQSTVRLQLNNLRAEDTGTYFCARSTYECPGGFSCWGDTGQIDAWGHGTEVIVSS
modifications: C-terminal FLAG tag
Molecule B1 gave a reduction of the MFI of the binding of human FAM19A5-Fc to U87MG cells of 68%.

B2: anti-FAM19A5 ("1-65") scFv, secreted by cells transduced with scAAV9-CMV-1-65-ScFv (scFv, part only)
scFv: ALTQPSSVSANPGETVKITCSGGGSSGYGYGWYQQKSPSSAPLTVIYWNDKRPSDIPSRFSGSKSGSTHTLTITGVQAEDEAVYFCGNDDYSSDSGYVGVFGAGTTLTVLSGGGGSSGGGGSAVTLDESGGGLQTPGGALSLVCKASGFTFSSYQMGWVRQAPGKGLEWVGVINKSGSDTSYGSAVKGRATISRDNGQSTVRLQLNNLRAEDTGTYFCAKGSASYITAATIDAWGHGTEVIVSS
modifications: C-terminal FLAG tag
Molecule B2 returned a reduction of the MFI of the binding of human FAM19A5-Fc to U87MG cells of 19%.
